Key:
[1] = test system: liver-derived progenitor cells (LDPCs); test: Self-renewal of LDPCs over two passages and differentiation into hepatocytes; format: cell-based, rat
Experimental: Liver cells from Sprague Dawley rats were harvested by 2-step in situ collagenase perfusion technique. The cells were then washed in phosphate buffered saline and centrifuged (50 g for 5 minutes) twice at room temperature. The cells were not further subjected to any fractionation as previously described (Sahin M B et al., Liver Transpl. 2008 14(3):333-45). Freshly isolated rat liver cells were cultured in a medium consisting of 75% Dulbecco's modified Eagle's medium (DMEM) and 25% MCDB 201 (Sigma-Aldrich) supplemented with 10% fetal bovine serum, 1 mg/mL of bovine serum albumin (BSA; Sigma), 100 μM of β-mercaptoethanol (Gibco, Carlsbad, Calif.), 25 mM of 4-2-hydroxyethyl-1-piperazineethanesulfonic acid (HEPES), 5 mM of Nicotinamide (Sigma-Aldrich), 1% SITE liquid medium (Sigma-Aldrich), and penicillin (100 μg/ml)/streptomycin (100 μg/ml; Invitrogen, Carlsbad, Calif.) on Type I collagen (Sigma, St. Louis, Mo.) coated tissue culture plates or dishes at a density of 1×10^4 cells/cm^2 at 37° C. in 5% CO2.
Deparaffinized liver tissue sections or 4% paraformaldehyde fixed HSCs were blocked with 10% goat serum and 5% BSA for 1 h. Dual staining was done using primary antibodies against human PEDF (se-59641; Santa Cruz Biotechnology, CA, USA) or α-SMA (ab5694 or ab7817; Abcam), PPARγ (sc-7273; Santa Cruz Biotechnology), albumin (sc-46295; Santa Cruz Biotechnology) or cytokeratin (CK) 18 (GTX112978; GeneTex, Inc.) at 37° C. for 2 h, followed by incubation with the appropriate rhodamine- or FITC-conjugated donkey IgG for 1 hr at room temperature. Nuclei were located by counterstaining with Hoechst 33258 for 7 min. Images were captured using a Zeiss epifluorescence microscope with a CCD camera.
Cells were scraped into lysis buffer (150 μL/35-mm well) containing 20 mM HEPES (pH 7.4), 1% SDS, 150 mM NaCl, 1 mM EGTA, 5 mM β-glycerophosphate, 10 mM sodium pyrophosphate, 10 mM sodium fluoride, […] sodium orthovanadate, 10 μg/mL leupeptin, and 10 μg/mL aprotinin. The lysate was incubated on ice for 15 min. Total cell lysate was also separated into cytoplasmic and nuclear fractions using the NE-PER nuclear and cytoplasmic extraction kit (Pierce, Rockford, Ill.) according to the manufacturer's instructions. Each cellular fraction was then resolved by SDS-PAGE and then electrotransferred to polyvinylidene difluoride membranes (Millipore, Bedford, Mass.) and processed for immunoblot analysis. Antibodies used in the immunoblot study included human PEDF (sc-59641; Santa Cruz Biotechnology), mouse PEDF (sc-74253; Santa Cruz Biotechnology), type I collagen 1A1 (sc-25974; Santa Cruz Biotechnology), α-SMA (ab5694 or ab7817; Abcam), PPARγ••(sc-7273; Santa Cruz Biotechnology), MCP-1 (ab7202; Abcam Ltd), α-actin (Sigma), epithelial cell adhesion molecule (EpCAM; sc-66020; Santa Cruz Biotechnology), hepatocytes nuclear factor and (HVF)3-β (sc-6554; Santa Cruz Biotechnology). Proteins of interest were detected using the appropriate IgG-HRP secondary antibody and ECL reagent. X-ray films were scanned on a Model GS-700 Imaging Densitometer (Bio-Rad Laboratories, Hercules, Calif.) and analyzed using Labworks 4.0 software. For quantification, blots from at least three independent experiments were used.
It has been reported that LDPCs may not be expanded in conventional basal medium, unless growth factor(s) were added therein (Sahin et al., Liver Transpl. 2008 14(3):333-45). To test the self-renewal property of PEDF derived peptides on LDPCs, liver cells were isolated and grown in separate medium including 4.5 nM (200 ng/ml) PEDF, 50 nM 34-mer or 50 nM 44-mer for two passages, which took a period of 35 days. The newly produced LDPCs in the cultured cells were confirmed by the detection of autofluorescence emitted therefrom; as well as two LDPC markers, which are epithelial cell adhesion molecule (EpCAM) and hepatocytes nuclear factor 3•••(HNF3)-β, by immunoblot analysis. […]

HSC-T6 cells = test: PPARγ induction and PPARγ siRNA reversal in HSC-T6 cells; format: cell-based, rat; details: 48 hours; RT-PCR and immunoblot
Experimental: HSC-T6 cells, a rat immortalized HSC, retained all features of activated HSCs and was kindly provided by Dr. Friedman S L (Kim et al., J Biol Chem 1998 273:33750-33758). HSC-T6 cells were grown in Waymouth medium supplemented with 10% FBS at 37° C. in a humidified atmosphere of 5% CO2.
The total RNA was extracted from cells using the TRIzol (Invitrogen, Carlsbad, Calif.). […] The intensities of the PCR products were quantified using a FUJI LAS-3000 densitometer and Multi Gauge Ver. […]
Cells were scraped into lysis buffer (150 μL/35-mm well) containing 20 mM HEPES (pH 7.4), 1% SDS, 150 mM NaCl, 1 mM EGTA, 5 mM β-glycerophosphate, 10 mM sodium pyrophosphate, 10 mM sodium fluoride, […] sodium orthovanadate, 10 μg/mL leupeptin, and 10 μg/mL aprotinin. […] Proteins of interest were detected using the appropriate IgG-HRP secondary antibody and ECL reagent. X-ray films were scanned on a Model GS-700 Imaging Densitometer (Bio-Rad Laboratories, Hercules, Calif.) and analyzed using Labworks 4.0 software. For quantification, blots from at least three independent experiments were used. […]

B1: pigment-epithelium-derived factor (protein, UniProt P36955 20-418, looked up)
Pigment epithelium-derived …: QNPASPPEEGSPDPDSTGALVEEEDPFFKVPVNKLAAAVSNFGYDLYRVRSSTSPTTNVLLSPLSVATALSALSLGAEQRTESIIHRALYYDLISSPDIHGTYKELLDTVTAPQKNLKSASRIVFEKKLRIKSSFVAPLEKSYGTRPRVLTGNPRLDLQEINNWVQAQMKGKLARSTKEIPDEISILLLGVAHFKGQWVTKFDSRKTSLEDFYLDEERTVRVPMMSDPKAVLRYGLDSDLSCKIAQLPLTGSMSIIFFLPLKVTQNLTLIEESLTSEFIHDIDRELKTVQAVLTVPKLKLSYEGEVTKSLQEMKLQSLFDSPDFSKITGKPIKLTQVEHRAGFEWNEDGAGTTPSPGLQPAHLTFPLDYHLNQPFIFVLRDTDTGALLFIGKILDPRGP
notes: pigment-epithelium-derived factor protein, used at 4.5 nM (200 ng/ml)
autofluorescence (LDPC marker) ([1]; 4.5 nM PEDF, 50 nM 34-mer or 50 nM 44-mer, two passages, 35 days): emitted autofluorescence | ability of expanded LDPCs to differentiate into hepatocytes (albumin and CK-18 staining) ([1]; immunofluorescence): retain the ability of differentiating into hepatocyte | self-renewal by expression of LDPC markers EpCAM and HNF3-β (immunoblot) ([1]; two passages, 35 days): exhibits self-renewal property | mRNA and protein expression of PPARγ (HSC-T6 cells): induced
